What was measured:
[1] = target: Integrin peptide 1 (GFOGER flanked by [GPP]5 at both ends); assay: ELISA; solid-phase binding assay (SPBA): peptides coated at 10 µg/mL overnight at 4 °C on Immulon 2HB 96-well plates, blocked with TBS containing 5% BSA; 1 µg/mL recombinant HSP47 for 1 h at room temperature; HRP-conjugated anti-His antibody, TMB, A450; means of three independent experiments
[2] = target: Collagen from calf skin (Sigma-Aldrich, Cat No: C9791) (calf) (UniProt P02453)
Sequence of UniProt P02453 (P02453 162-1217, chain 1 of 2): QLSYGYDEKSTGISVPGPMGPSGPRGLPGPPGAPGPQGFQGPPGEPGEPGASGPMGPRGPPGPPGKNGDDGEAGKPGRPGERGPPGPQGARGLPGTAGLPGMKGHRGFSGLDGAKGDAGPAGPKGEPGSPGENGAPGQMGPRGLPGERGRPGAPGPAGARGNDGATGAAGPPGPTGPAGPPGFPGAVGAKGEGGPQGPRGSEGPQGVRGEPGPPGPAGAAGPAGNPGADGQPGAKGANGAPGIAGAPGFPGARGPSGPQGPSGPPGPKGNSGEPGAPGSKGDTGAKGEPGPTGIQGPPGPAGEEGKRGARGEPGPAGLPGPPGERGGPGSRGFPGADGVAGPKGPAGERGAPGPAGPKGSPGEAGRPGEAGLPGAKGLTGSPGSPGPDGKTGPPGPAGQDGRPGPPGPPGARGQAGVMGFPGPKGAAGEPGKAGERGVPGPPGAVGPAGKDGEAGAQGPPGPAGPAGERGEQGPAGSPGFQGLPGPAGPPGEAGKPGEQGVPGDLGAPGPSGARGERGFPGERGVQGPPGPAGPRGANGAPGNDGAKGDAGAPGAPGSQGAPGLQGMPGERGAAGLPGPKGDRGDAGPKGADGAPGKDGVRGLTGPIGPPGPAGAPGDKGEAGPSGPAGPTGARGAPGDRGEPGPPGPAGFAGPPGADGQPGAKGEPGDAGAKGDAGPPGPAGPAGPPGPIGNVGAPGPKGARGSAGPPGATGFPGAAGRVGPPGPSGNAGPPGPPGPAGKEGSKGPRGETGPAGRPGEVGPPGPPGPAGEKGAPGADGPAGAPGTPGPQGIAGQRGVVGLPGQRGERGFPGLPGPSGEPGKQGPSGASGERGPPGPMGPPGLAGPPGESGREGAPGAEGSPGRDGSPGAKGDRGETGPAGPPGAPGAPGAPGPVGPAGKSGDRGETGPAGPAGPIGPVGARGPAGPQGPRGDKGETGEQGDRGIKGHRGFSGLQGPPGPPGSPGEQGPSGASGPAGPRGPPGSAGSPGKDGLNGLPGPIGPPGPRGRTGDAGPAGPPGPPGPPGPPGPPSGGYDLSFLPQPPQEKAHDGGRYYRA
Sequence of UniProt P02453 (P02465 80-1117, chain 2 of 2, further chain): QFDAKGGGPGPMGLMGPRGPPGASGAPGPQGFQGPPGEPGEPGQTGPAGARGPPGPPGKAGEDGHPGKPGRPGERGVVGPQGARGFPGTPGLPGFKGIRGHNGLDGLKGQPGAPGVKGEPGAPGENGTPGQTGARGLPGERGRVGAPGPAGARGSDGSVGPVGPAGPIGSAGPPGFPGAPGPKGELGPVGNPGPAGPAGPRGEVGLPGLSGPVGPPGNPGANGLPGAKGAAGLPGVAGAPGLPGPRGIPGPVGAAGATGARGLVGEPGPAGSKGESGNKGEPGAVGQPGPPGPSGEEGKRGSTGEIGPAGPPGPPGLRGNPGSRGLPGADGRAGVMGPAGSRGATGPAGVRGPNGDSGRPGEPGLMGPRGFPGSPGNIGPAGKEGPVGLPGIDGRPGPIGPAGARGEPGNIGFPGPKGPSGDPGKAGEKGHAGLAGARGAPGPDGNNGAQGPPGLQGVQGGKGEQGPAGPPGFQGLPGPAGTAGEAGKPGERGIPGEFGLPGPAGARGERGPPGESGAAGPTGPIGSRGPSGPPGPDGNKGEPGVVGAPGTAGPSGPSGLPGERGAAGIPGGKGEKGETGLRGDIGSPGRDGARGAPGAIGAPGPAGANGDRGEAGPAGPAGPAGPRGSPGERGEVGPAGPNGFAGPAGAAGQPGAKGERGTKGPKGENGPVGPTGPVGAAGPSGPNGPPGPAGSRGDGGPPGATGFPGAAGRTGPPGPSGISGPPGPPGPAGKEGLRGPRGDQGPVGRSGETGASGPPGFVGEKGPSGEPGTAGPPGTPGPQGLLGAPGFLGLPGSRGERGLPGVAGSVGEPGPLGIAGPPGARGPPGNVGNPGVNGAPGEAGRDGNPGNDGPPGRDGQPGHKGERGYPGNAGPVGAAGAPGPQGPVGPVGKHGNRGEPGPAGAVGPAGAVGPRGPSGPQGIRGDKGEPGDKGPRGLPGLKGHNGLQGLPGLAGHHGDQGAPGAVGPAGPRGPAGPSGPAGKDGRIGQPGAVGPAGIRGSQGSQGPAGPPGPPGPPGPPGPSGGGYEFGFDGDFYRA

Mean A450 [1]: > 2 A450
IC50 of the small molecule Com II against HSP47 (2.6 μM) in the turbidity assay of collagen fibril formation [2]: 50 to 100 µM
IC50 of the small molecule Hs1 against HSP47 (2.6 μM) in the turbidity assay of collagen fibril formation [2]: 97 µM
IC50 of the small molecule Hs55 against HSP47 (2.6 μM) in the turbidity assay of collagen fibril formation [2]: 55 µM
B1: human HSP47 (heat shock protein 47), amino acids 19-418, C-terminal His-tag (natural protein)
chain: AEVKKPAAAAAPGTAEKLSPKAATLAERSAGLAFSLYQAMAKDQAVENILVSPVVVASSLGLVSLGGKATTASQAKAVLSAEQLRDEEVHAGLGELLRSLSNSTARNVTWKLGSRLYGPSSVSFADDFVRSSKQHYNCEHSKINFRDKRSALQSINEWAAQTTDGKLPEVTKDVERTDGALLVNAMFFKPHWDEKFHHKMVDNRGFMVTRSYTVGVMMMHRTGLYNYYDDEKEKLQIVEMPLAHKLSSLIILMPHHVEPLERLEKLLTKEQLKIWMGKMQKKAVAISLPKGVVEVTHDLQKHLAGLGLTEAIDKNKADLSRMSGKKDLYLASVFHATAFELDTDGNPFDQDIYGREELRSPKLFYADHPFIFLVRDTQSGSLLFIGRLVRPKGDKMRDEL
